We go through two molecules from article PMC4955127 (Biotechnology for Biofuels, 2016).

Usually Ki stands for the equilibrium dissociation constant of an inhibitor or competing ligand from its target. Read a high Ki as a looser hold on the target. For orientation: Km means the concentration of substrate that gives half-maximal velocity. Broadly, the Vmax is the rate approached at saturating substrate. For orientation: kcat means the maximal rate divided by the concentration of active sites. For orientation: kcat/Km means the turnover number divided by the Michaelis constant.

For one data set, the target named is T1, Bgl3A (Evansstolkia leycettana, UniProt A0A1B0VFN7).
T1 construct: mature enzyme without native signal peptide (residues 1-19 of 737 removed)
T1 sequence (A0A1B0VFN7 20-737): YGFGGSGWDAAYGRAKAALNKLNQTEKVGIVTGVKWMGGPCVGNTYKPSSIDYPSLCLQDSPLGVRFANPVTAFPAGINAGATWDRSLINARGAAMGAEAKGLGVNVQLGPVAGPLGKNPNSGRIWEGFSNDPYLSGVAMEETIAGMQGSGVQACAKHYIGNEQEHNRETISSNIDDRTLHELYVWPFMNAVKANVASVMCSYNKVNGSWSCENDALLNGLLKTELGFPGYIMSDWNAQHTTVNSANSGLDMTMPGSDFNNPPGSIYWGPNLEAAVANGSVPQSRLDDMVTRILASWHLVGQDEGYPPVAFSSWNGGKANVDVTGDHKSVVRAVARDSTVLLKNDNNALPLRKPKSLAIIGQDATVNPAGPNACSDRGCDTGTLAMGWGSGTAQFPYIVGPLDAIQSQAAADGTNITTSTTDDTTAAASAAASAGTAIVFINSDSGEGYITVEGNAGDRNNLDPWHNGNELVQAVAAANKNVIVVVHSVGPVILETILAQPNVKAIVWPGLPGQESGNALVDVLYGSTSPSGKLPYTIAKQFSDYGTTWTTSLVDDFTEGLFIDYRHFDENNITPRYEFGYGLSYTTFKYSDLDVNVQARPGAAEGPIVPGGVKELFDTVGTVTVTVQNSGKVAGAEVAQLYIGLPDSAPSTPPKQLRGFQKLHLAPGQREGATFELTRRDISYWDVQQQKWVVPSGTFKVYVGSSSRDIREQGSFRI
As to the kind of experiment: glucose inhibition of pNPG hydrolysis. In kind it is biochemical. To be noted: product inhibition; substrate pNPG.

Substrate in the data set “purified protein”: O=[N+]([O-])c1ccc(O[C@@H]2O[C@H](CO)[C@@H](O)[C@H](O)[C@H]2O)cc1
As to the kind of experiment: purified protein. To be noted: 100 mM Na2HPO4-citric acid, optimal conditions (pH 4.5, 75 °C), 5 min.

`OC[C@H]1OC(O)[C@H](O)[C@@H](O)[C@@H]1O` (some centres unmarked) [glucose]: the inhibitory constant (Ki) at Bgl3A came out at 14 mM.

B1: Bgl3A (Evansstolkia leycettana) (protein)
chain: YGFGGSGWDAAYGRAKAALNKLNQTEKVGIVTGVKWMGGPCVGNTYKPSSIDYPSLCLQDSPLGVRFANPVTAFPAGINAGATWDRSLINARGAAMGAEAKGLGVNVQLGPVAGPLGKNPNSGRIWEGFSNDPYLSGVAMEETIAGMQGSGVQACAKHYIGNEQEHNRETISSNIDDRTLHELYVWPFMNAVKANVASVMCSYNKVNGSWSCENDALLNGLLKTELGFPGYIMSDWNAQHTTVNSANSGLDMTMPGSDFNNPPGSIYWGPNLEAAVANGSVPQSRLDDMVTRILASWHLVGQDEGYPPVAFSSWNGGKANVDVTGDHKSVVRAVARDSTVLLKNDNNALPLRKPKSLAIIGQDATVNPAGPNACSDRGCDTGTLAMGWGSGTAQFPYIVGPLDAIQSQAAADGTNITTSTTDDTTAAASAAASAGTAIVFINSDSGEGYITVEGNAGDRNNLDPWHNGNELVQAVAAANKNVIVVVHSVGPVILETILAQPNVKAIVWPGLPGQESGNALVDVLYGSTSPSGKLPYTIAKQFSDYGTTWTTSLVDDFTEGLFIDYRHFDENNITPRYEFGYGLSYTTFKYSDLDVNVQARPGAAEGPIVPGGVKELFDTVGTVTVTVQNSGKVAGAEVAQLYIGLPDSAPSTPPKQLRGFQKLHLAPGQREGATFELTRRDISYWDVQQQKWVVPSGTFKVYVGSSSRDIREQGSFRI
Regarding B1, in the data set “purified protein”, the Km is 180 µM, the Vmax was 1310 µmol/min/mg, the kcat was 1660 s⁻¹ and the kcat/Km was determined as 9.1e+06 M⁻¹ s⁻¹.
